Measured values reported in patent publication WO2019077951A1 (dated 2019).

Molecular target: T1, full-length MUC1 (amino acid sequence of SEQ ID NO: 27) (human (human cervical cancer cell line …, UniProt P15941 24-1255, limits assumed))
T1 construct: Full-length protein from cell extract on a Western blot membrane
Assay: Western blotting

T1 sequence (P15941 other isoform, or with tags, fused parts or gaps limits assumed): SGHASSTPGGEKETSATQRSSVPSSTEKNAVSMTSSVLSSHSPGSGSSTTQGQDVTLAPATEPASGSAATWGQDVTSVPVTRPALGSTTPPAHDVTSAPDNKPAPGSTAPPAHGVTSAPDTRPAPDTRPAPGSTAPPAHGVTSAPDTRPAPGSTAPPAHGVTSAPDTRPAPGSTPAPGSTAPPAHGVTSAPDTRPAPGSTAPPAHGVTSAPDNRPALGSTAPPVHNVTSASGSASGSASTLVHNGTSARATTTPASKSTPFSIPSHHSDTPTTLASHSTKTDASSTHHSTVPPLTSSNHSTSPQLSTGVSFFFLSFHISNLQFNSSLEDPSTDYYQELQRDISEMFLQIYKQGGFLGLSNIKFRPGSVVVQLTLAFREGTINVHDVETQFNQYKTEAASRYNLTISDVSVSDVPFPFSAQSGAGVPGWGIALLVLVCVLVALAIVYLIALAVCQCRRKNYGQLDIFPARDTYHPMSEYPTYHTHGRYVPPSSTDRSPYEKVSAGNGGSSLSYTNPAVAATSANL

B1: anti-MUC1 monoclonal antibody (antibody, V domains shown)
VH: EVKLEESGGGLVQPGGSMKLSCVASGFSFSDYWMNWVRQSPDKGLEWISDIRLKSYNYATHYAESVKGRFTISRDDSKSGVYLQMNNLRAEDTGLYYCTFGNSFAYWGQGTLVTVSA
VL: QAVVTQESALTTSPGETVTLTCRSSTGAVTTSNYANWVQEKPDHLFTGLIGGTNNRAPGVPARFSGSLIGDKAALTITGAQTEDEAIYFCALWYSNHWVFGGGTKLTVLG
notes: also called MUC1 antibody
binding result: binds
